From paper PMC10143822, “Structural Adaptation of the Single-Stranded DNA-Binding Protein C-Terminal to DNA Metabolizing Partners Guides Inhibitor Design” (Pharmaceutics, 2023)
Where a SMILES comes first, the peptide text is derived from it. Primed or numbered codes have the meaning given here. Where no end group is shown, it is not given here. [ ]: non-standard residue; d: D form. 5,6‑carboxyfluorescein = 5,6-carboxyfluorescein; Phe(4-CF3) = N[C@@H](Cc1ccc(C(F)(F)F)cc1)C(=O)O; Phe(3-Cl) = N[C@@H](Cc1cccc(Cl)c1)C(=O)O; Phe(4-Cl) = N[C@@H](Cc1ccc(Cl)cc1)C(=O)O; Pip = O=C(O)[C@@H]1CCCCN1; β3hD = NC(CC(=O)O)CC(=O)O; Nle = CCCC[C@H](N)C(=O)O; Pip′ = not defined here

Columns and labels:
[1] = target: T1, ExoI (Escherichia coli, UniProt P04995); assay: Isothermal titration calorimetry with ExoI; format: binding, E. coli; details: 20 mM Tris–HCl pH 8.0, 100 mM NaCl
T1 construct: His-tag (cleaved yes); host or cells: E. coli BL21 (DE3) pLysS
T1 sequence (P04995 whole entry): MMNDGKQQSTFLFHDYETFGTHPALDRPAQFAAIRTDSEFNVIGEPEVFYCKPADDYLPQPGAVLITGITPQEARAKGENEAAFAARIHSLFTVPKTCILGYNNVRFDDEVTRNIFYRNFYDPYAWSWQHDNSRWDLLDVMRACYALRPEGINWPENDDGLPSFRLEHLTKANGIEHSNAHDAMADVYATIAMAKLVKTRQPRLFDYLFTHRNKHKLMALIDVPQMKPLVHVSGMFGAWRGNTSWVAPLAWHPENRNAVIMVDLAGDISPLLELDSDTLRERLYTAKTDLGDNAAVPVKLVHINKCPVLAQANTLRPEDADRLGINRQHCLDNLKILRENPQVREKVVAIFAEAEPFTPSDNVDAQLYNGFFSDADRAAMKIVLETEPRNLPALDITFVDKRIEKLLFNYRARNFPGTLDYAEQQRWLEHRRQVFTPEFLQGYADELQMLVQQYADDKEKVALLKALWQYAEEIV
Experimental: (§1) Isothermal titration calorimetry (ITC) experiments were performed using a MicroCal VP-ITC titration microcalorimeter. ExoI was dialyzed extensively against the indicated buffer and cleared through centrifugation at 14,000 rpm for 15 min at 4 °C. RecO was subjected to a quick buffer exchange using an Amicon Ultra ultrafiltration device (Sigma). Protein concentrations were determined after the buffer exchange procedure.
(§2) The raw data were integrated using NITPIC [39]. The binding parameters, association equilibrium constant (KA), binding enthalpy (ΔH), and binding entropy (ΔS) were obtained by fitting the titration curves to a model of A + B = C in SEDPHAT [40]. Stoichiometry was fixed to 1:1 and the incompetent fraction was fitted for the protein concentration.

[2] = test system: ExoI; details: 1 µM biotin-tagged peptide on streptavidin beads, lysate with 1 µM recombinant ExoI, 30 min; on-bead tryptic digestion, nanoLC-MS/MS intensities
Experimental: ExoI and RecO expressing cells were grown and lysed, as mentioned above. A fraction of cell lysate was used to quantify the recombinant protein content. BL21 (DE)3 pLysS cells were grown on LB media until OD600 = 2.0 and lysed using sonication. Recombinant protein containing lysates were diluted with BL21 (DE)3 pLysS lysate, setting the final concentration of the recombinant protein to 1 µM. SSB peptides (wtSSB, E1-sSSB, R2-sSSB) were immobilized onto Streptavidin DynaBeads using an N-terminal biotin tag. Then, 1 µM immobilized peptides were incubated with cell lysate for 30 min. Beads were washed with trypsin digestion buffer (20 mM TRIS pH = 8.0, 100 mM NaCl, 2 mM CaCl2). Beads were processed with an on-pellet digestion protocol. NanoLC-MS/MS analysis was carried out on a Waters ACQUITY UPLC M-Class LC system (Waters, Milford, MA, USA) coupled with a Q Exactive^TM Plus Hybrid Quadrupole-Orbitrap^TM mass spectrometer (Thermo Fisher Scientific, Waltham, MA, USA). The instrument was operated in the data-dependent mode. […]
To test the affinity improvement for E1-sSSB-Ct and R2-sSSB-Ct relative to wtSSB-Ct in a complex environment, we carried out a pull-down assay using bacterial cell lysates. […] The washed bead was digested, and tryptic peptides were detected using HPLC-MS.

[3] = target: T2, RecO (Escherichia coli, UniProt P0A7H3); assay: Isothermal titration calorimetry with RecO; format: binding; details: 50 mM HEPES pH 7.5, 50 mM NaCl, 25% glycerol; read-out: KD, ITC, RecO
T2 construct: His-tag (TEV site) (N, cleaved yes); made in house; host or cells: E. coli Rosetta cells
Experimental: as §1, §2

[4] = target: T3, Escherichia coli RecO (Escherichia coli, UniProt P0A7H3 1-242); assay: ITC; peptide in the syringe titrated into RecO in the cell; 50 mM HEPES pH 7.5, 50 mM NaCl, 25% glycerol, 1 mM TCEP; model A + B = C, stoichiometry fixed to 1:1, incompetent fraction fitted; details: both partners purified
T3 construct: RecO of Escherichia coli, synthetic gene in pET28a+ with a TEV site at the 5' end; The His tag was cut off with TEV protease only for the purified protein; source: E. coli Rosetta, purified (Ni-NTA, heparin); also in cell lysate (pull-down); not shown: His tag, N-terminal, cleaved
T3 sequence: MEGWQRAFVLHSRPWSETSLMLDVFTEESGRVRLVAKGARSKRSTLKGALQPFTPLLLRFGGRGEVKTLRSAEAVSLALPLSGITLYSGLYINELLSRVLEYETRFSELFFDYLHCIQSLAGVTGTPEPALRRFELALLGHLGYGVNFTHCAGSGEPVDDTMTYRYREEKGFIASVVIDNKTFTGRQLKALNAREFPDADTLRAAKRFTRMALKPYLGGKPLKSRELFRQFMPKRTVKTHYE

[5] = target: T3, Escherichia coli RecO; assay: fluorescence polarisation; competition fluorescence anisotropy: 0.5 µM RecO, 50 nM F-wtSSB tracer, 0–500 µM unlabeled peptide, 30 min at room temperature, read at 25 °C; 20 mM Tris-HCl pH 8.0, 200 mM NaCl, 1 mM 2-mercaptoethanol, 10% glycerol, 0.01% Triton-X 100; details: both partners purified
[6] = target: T4, E. coli Exonuclease I (E. coli, UniProt P04995 1-471); assay: fluorescence polarisation; direct fluorescence anisotropy: ExoI serially diluted from 16 µM, 50 nM fluorescein-labelled peptide, 30 min, 25 °C; 20 mM Tris-HCl pH 8.0, 100 mM NaCl, 1 mM MgCl2, 1 mM 2-mercaptoethanol, 10% glycerol; details: both partners purified
T4 construct: Exonuclease I of E. coli, from plasmid pET14b-E. coli Exonuclease I (Addgene 104552); The His tag was cut off with thrombin only for the purified protein; also called ExoI; Exol; source: E. coli BL21 (DE3) pLysS, purified (Ni-NTA, heparin); also in cell lysate (pull-down)
T4 sequence: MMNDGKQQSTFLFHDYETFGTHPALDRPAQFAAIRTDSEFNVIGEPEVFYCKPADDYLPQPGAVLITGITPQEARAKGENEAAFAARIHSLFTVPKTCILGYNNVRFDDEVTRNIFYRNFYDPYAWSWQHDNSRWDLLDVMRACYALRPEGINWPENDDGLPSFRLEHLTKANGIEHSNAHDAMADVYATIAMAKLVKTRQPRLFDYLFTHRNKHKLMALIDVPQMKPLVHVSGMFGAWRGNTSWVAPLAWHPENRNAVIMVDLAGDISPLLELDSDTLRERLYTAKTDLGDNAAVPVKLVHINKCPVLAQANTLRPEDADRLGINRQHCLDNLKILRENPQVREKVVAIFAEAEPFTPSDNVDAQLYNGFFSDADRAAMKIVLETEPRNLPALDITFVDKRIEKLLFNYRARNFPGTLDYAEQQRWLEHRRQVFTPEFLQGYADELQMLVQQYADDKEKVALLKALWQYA

[7] = target: T3, Escherichia coli RecO; assay: fluorescence polarisation; direct fluorescence anisotropy: RecO serially diluted from 7.5 µM, 50 nM fluorescein-labelled peptide, 30 min, 25 °C; 20 mM Tris-HCl pH 8.0, 200 mM NaCl, 1 mM 2-mercaptoethanol, 10% glycerol, 0.01% Triton-X 100; details: both partners purified
[8] = target: T4, E. coli Exonuclease I; assay: ITC; peptide in the syringe titrated into ExoI in the cell; 20 mM Tris–HCl pH 8.0, 100 mM NaCl, 1 mM MgCl2, 4% glycerol, 1 mM β-mercaptoethanol; model A + B = C, stoichiometry fixed to 1:1, incompetent fraction fitted; details: both partners purified
[9] = target: T4, E. coli Exonuclease I; assay: fluorescence polarisation; competition fluorescence anisotropy: 0.5 µM ExoI, 50 nM F-wtSSB tracer, 0–500 µM unlabeled peptide, 30 min at room temperature, read at 25 °C; 20 mM Tris-HCl pH 8.0, 100 mM NaCl, 1 mM MgCl2, 1 mM 2-mercaptoethanol, 10% glycerol; details: both partners purified
[10] = target: T3, Escherichia coli RecO; assay: fluorescence polarisation; competition fluorescence anisotropy: 0.5 µM RecO, 50 nM F-wtSSB tracer, 0–500 µM unlabeled peptide, 30 min at room temperature, read at 25 °C; 20 mM Tris-HCl pH 8.0, 200 mM NaCl, 1 mM 2-mercaptoethanol, 10% glycerol, 0.01% Triton-X 100; details: both partners purified; remark: listed apart in the source
[11] = target: E1-sSSB with an N-terminal biotin tag, on Streptavidin DynaBeads (E. coli); assay: affinity purification with mass spectrometry; pull-down: 1 µM biotin peptide on Streptavidin DynaBeads, 30 min with E. coli lysate holding 1 µM recombinant ExoI or RecO; on-pellet tryptic digestion, nanoLC-MS/MS
[12] = target: T4, E. coli Exonuclease I; assay: fluorescence polarisation; competition fluorescence anisotropy: 0.5 µM ExoI, 50 nM F-wtSSB tracer, 0–500 µM unlabeled peptide, 30 min at room temperature, read at 25 °C; 20 mM Tris-HCl pH 8.0, 100 mM NaCl, 1 mM MgCl2, 1 mM 2-mercaptoethanol, 10% glycerol; details: both partners purified; remark: listed apart in the source
[13] = target: R2-sSSB with an N-terminal biotin tag, on Streptavidin DynaBeads (E. coli); assay: affinity purification with mass spectrometry; pull-down: 1 µM biotin peptide on Streptavidin DynaBeads, 30 min with E. coli lysate holding 1 µM recombinant ExoI or RecO; on-pellet tryptic digestion, nanoLC-MS/MS

CC(=O)N[C@@H](CCC(=O)O)C(=O)N[C@@H](Cc1ccc(C(F)(F)F)cc1)C(=O)N[C@@H](CC(=O)O)C(=O)N[C@@H](CC(=O)O)CC(=O)N[C@@H](CCC(=O)O)C(=O)N[C@@H](CC(C)C)C(=O)N1CCCC[C@H]1C(=O)N[C@@H](Cc1ccc(C(F)(F)F)cc1)C(=O)O [E1-sSSB-Ct] (Ac-E[Phe(4-CF3)]D[β3hD]EL[Pip][Phe(4-CF3)]-OH)
ΔG, ITC, ExoI [1]: -10.89 kcal/mol | −TΔS, ITC, ExoI [1]: 6.46 kcal/mol | N (stoichiometry), ITC, ExoI ([1]; 1 mM MgCl2, 4% glycerol, model A + B = C, stoichiometry fixed 1:1, incompetent fraction fitted): 1.0000 | ΔH, ITC, ExoI ([1]; confidence interval in brackets): −17.35 (−18.34–−16.43) kcal/mol | Kd ([1]; read-out: KD, ITC, ExoI (in nM), 1:1 stoichiometry): 19 nM | enrichment of ExoI on immobilized peptide compared to wtSSB-Ct [2]: two-fold

CC[C@H](C)[C@H](NC(=O)[C@H](CC(=O)O)NC(=O)[C@H](CC(=O)O)NC(=O)[C@H](CC(=O)O)NC(=O)[C@H](Cc1ccc(Cl)cc1)NC(=O)[C@H](CC(=O)O)NC(C)=O)C(=O)N1CCC[C@H]1C(=O)N[C@@H](Cc1cccc(Cl)c1)C(=O)O [R2-sSSB-Ct] (Ac-D[Phe(4-Cl)]DDDIP[Phe(3-Cl)]-OH)
Kd [3]: 35 nM

B1: R2-sSSB-Ct (Asp–4Cl-Phe–Asp–Asp–Asp–Ile–Pro–3Cl-Phe) (peptide)
peptide: Ac-D[Phe(4-Cl)]DDDIP[Phe(3-Cl)]
notes: SSB-Ct of E. coli SSB (residues 171-178), printed in three-letter code; F2 stands for 4Cl-Phe, F8 for 3Cl-Phe; numbers count on: the octapeptide (position 1 = SSB residue 171); source: synthetic peptide
Kd [4]: 40 nM | dH [4]: -23.5 kcal/mol | stoichiometry N [4]: 1 | IC50 [5]: 590 nM

B2: fluorescein-labeled wtSSB-Ct (peptide)
peptide: {5,6‑carboxyfluorescein}-GGDFDDDIPF
notes: two glycines between the 5,6-carboxyfluorescein and the peptide; also called F-SSB-Ct; F-wtSSB-Ct; source: synthetic peptide (solid phase, HPLC purified)
EC50 [6]: 350 ± 40 nM | EC50 [7]: 370 ± 30 nM

B3: F-Glu5 (fluorescein-labelled single mutant) (peptide)
peptide: {5,6‑carboxyfluorescein}-GGDFDDEIPF
notes: two glycines between the 5,6-carboxyfluorescein and the peptide; E. coli SSB-Ct, residues 171-178; numbers count on: the octapeptide (position 1 = SSB residue 171); One of Compounds 54-62 of the Supplementary Material; also called F-mSSB Glu5; source: synthetic peptide
EC50 [6]: 110 ± 10 nM | EC50 [7]: 200 ± 20 nM

{5,6‑carboxyfluorescein}-DFDDD[Nle]PF [F-nLe6 (fluorescein-labelled single mutant)]
EC50 [6]: 200 ± 10 nM | EC50 [7]: 200 ± 10 nM

B4: wtSSB-Ct, octapeptide identical to the SSB C-terminal acidic tip (residues 171-178 of SSB) (peptide)
peptide: Ac-DFDDDIPF
notes: also called wild-type SSB-Ct; source: synthetic peptide (solid phase, HPLC purified)
Kd [4]: 140 nM | dH [4]: -7.54 kcal/mol | stoichiometry N [4]: 1 | Kd [8]: 3070 nM | dH [8]: -10.7 kcal/mol | stoichiometry N [8]: 0.959 | IC50 [9]: 4.54 ± 0.34 µM | IC50 [10]: 4.66 ± 0.24 µM

B5: mSSB-Ct Leu6 (unlabelled single mutant) (peptide)
peptide: Ac-DFDDDLPF
notes: E. coli SSB C-terminal tip (SSB-Ct), residues 171-178; numbers count on: the octapeptide (position 1 = SSB residue 171); also called isoleucine to leucine at position 6; source: synthetic peptide
IC50 [5]: 3220 nM

B6: E. coli Exonuclease I (enzyme)
chain: MMNDGKQQSTFLFHDYETFGTHPALDRPAQFAAIRTDSEFNVIGEPEVFYCKPADDYLPQPGAVLITGITPQEARAKGENEAAFAARIHSLFTVPKTCILGYNNVRFDDEVTRNIFYRNFYDPYAWSWQHDNSRWDLLDVMRACYALRPEGINWPENDDGLPSFRLEHLTKANGIEHSNAHDAMADVYATIAMAKLVKTRQPRLFDYLFTHRNKHKLMALIDVPQMKPLVHVSGMFGAWRGNTSWVAPLAWHPENRNAVIMVDLAGDISPLLELDSDTLRERLYTAKTDLGDNAAVPVKLVHINKCPVLAQANTLRPEDADRLGINRQHCLDNLKILRENPQVREKVVAIFAEAEPFTPSDNVDAQLYNGFFSDADRAAMKIVLETEPRNLPALDITFVDKRIEKLLFNYRARNFPGTLDYAEQQRWLEHRRQVFTPEFLQGYADELQMLVQQYADDKEKVALLKALWQYA
fold enrichment as compared to wtSSB-Ct [11]: 2 fold

Ac-DFDDD[Nle]PF [mSSB-Ct nLe6 (unlabelled single mutant)]
IC50 [5]: 2550 nM

B7: E1-sSSB-Ct (Glu–4-CF3-Phe–Asp–β^3-Asp–Glu–Leu–Pip–4-CF3-Phe) (peptide)
chain: Ac-E[Phe(4-CF3)]D[β3hD]EL[Pip′][Phe(4-CF3)]
modifications: not fully specified; printed as E1-sSSB-Ct (Glu–4-CF3-Phe–Asp–β^3-Asp–Glu–Leu–Pip–4-CF3-Phe)
Kd [8]: 20 nM | dH [8]: -17.4 kcal/mol | stoichiometry N [8]: 1 | IC50 [12]: 170 nM

B8: Escherichia coli RecO (natural protein)
chain: MEGWQRAFVLHSRPWSETSLMLDVFTEESGRVRLVAKGARSKRSTLKGALQPFTPLLLRFGGRGEVKTLRSAEAVSLALPLSGITLYSGLYINELLSRVLEYETRFSELFFDYLHCIQSLAGVTGTPEPALRRFELALLGHLGYGVNFTHCAGSGEPVDDTMTYRYREEKGFIASVVIDNKTFTGRQLKALNAREFPDADTLRAAKRFTRMALKPYLGGKPLKSRELFRQFMPKRTVKTHYE
fold enrichment as compared to wtSSB-Ct [13]: 10 fold
